This test has as its target AM receptor expressed in a cultured cell line (HEK293 cell line). The test is described as follows: cell-based or functional assay.
Substance “amidated compound of Example 12: (IgG4 Fc Region)+(Linker K)+(AM (11-52)-Gly), amidated (Fc fusion)” had a Relative activity (%) (vs. hAM), intracellular cAMP, compound at 10^-6 M of 48%.

In turn, “amidated compound of Example 1: (IgG1 Fc Region)+(Linker S)+(AM-Gly), amidated (Fc fusion)” came in with a Relative activity (%) (vs. hAM), intracellular cAMP, compound at 10^-6 M of 27%.

“amidated compound of Example 3: (IgG4 Fc Region)+(Linker S)+(AM-Gly), amidated (Fc fusion)”: the Relative activity (%) (vs. hAM), intracellular cAMP, compound at 10^-6 M stood at 27%.

“amidated compound of Example 5: (IgG1 Fc Region)+(Linker S)+(AM (6-52)-Gly), amidated (Fc fusion)” displayed a Relative activity (%) (vs. hAM), intracellular cAMP, compound at 10^-6 M of 88%.

Turning to “amidated compound of Example 11: (IgG4 Fc Region)+(Linker S)+(AM (11-52)-Gly), amidated (Fc fusion)”, the Relative activity (%) (vs. hAM), intracellular cAMP, compound at 10^-6 M is 36%.

The substance “amidated compound of Example 6: (IgG1 Fc Region)+(Linker K)+(AM (6-52)-Gly), amidated (Fc fusion)” displayed a Relative activity (%) (vs. hAM), intracellular cAMP, compound at 10^-6 M of 70%.

“amidated compound of Example 9: (IgG4 Fc Region)+(Linker S)+(AM (6-52)-Gly), amidated (Fc fusion)” came in with a Relative activity (%) (vs. hAM), intracellular cAMP, compound at 10^-6 M of 54%.

In the case of “amidated compound of Example 4: (IgG4 Fc Region)+(Linker K)+(AM-Gly), amidated (Fc fusion)”, the Relative activity (%) (vs. hAM), intracellular cAMP, compound at 10^-6 M is 49%.

The substance “amidated compound of Example 7: (IgG1 Fc Region)+(Linker S)+(AM (11-52)-Gly), amidated (Fc fusion)” returned a Relative activity (%) (vs. hAM), intracellular cAMP, compound at 10^-6 M of 68%.

The substance “amidated compound of Example 2: (IgG1 Fc Region)+(Linker K)+(AM-Gly), amidated (Fc fusion)” came in with a Relative activity (%) (vs. hAM), intracellular cAMP, compound at 10^-6 M of 11%.

In the case of “amidated compound of Example 8: (IgG1 Fc Region)+(Linker K)+(AM (11-52)-Gly), amidated (Fc fusion)”, the Relative activity (%) (vs. hAM), intracellular cAMP, compound at 10^-6 M worked out at 48%.

With “amidated compound of Example 10: (IgG4 Fc Region)+(Linker K)+(AM (6-52)-Gly), amidated (Fc fusion)”, the Relative activity (%) (vs. hAM), intracellular cAMP, compound at 10^-6 M amounted to 39%.

The values above are taken from patent US20210115103A1.
